Tests used:
cdc2 protein kinase = cdc2 protein kinase (Homo sapiens, UniProt P06493); assay: Phosphorylation of cdc2 protein kinase substrate on biochip using [γ-32P]ATP; format: biochemical; conditions: 1.0 mg/ml substrate on aldehyde treated slide glass; 10 unit/ml cdc2 protein kinase; 0.1 μCi/μl [γ-32P]ATP; BSA negative control
Description: (§1) To fix substrate on the aldehyde-treated slide glass (Nuricell Inc., Korea), 0.1 mg/ml of the Mep45-kinase substrate fusion protein or 1.25 μg/ml of peptide substrate (Promega, Madison, Wis.) was integrated. Particularly, the recombinant Mep45-kinase substrate fusion protein solution (10% glycerol, PBS, pH 7.5) was prepared at the concentration of 0.1 mg/ml, and this substrate solution was integrated on the aldehyde-treated slide glass at the spot intervals of 300 μm by using microarray device (Genetix Ltd, UK). The size of the spot was regulated to be 300 μm. The integrated biochip was reacted in a humid chamber at room temperature for one hour, leading to fixation.
(§2) The biochip constructed in Example 2 was washed three times with PBS (200 mM NaCl, 3 mM KCl, 2 mM KH2PO4, 1 mM Na2HPO4, pH 7.5), followed by reaction of the kinase and substrate on the chip. Particularly, the chip was washed with kinase buffer (40 mM Tris-HCl, 20 mM MgCl2, 0.1 mg/ml BSA, pH 7.5) once. […]
1.0 mg/ml of PKTPKKAKKL (SEQ. ID. NO: 2) and Mep45 fusion substrate were integrated on the aldehyde treated slide glass, followed by phosphorylation using 10 unit/ml of cdc2 protein kinase and 0.1 μCi/μl of [γ-^32P]ATP. Phosphorylation was measured by using X-ray film or X-ray fluorescence spectrometer. […]

PKC (Protein Kinase C) = assay: Phosphorylation of PKC substrate on biochip using [γ-32P]ATP; format: biochemical; conditions: 0.3 mg/ml substrate on aldehyde treated slide glass; 10 unit/ml PKC; 0.1 μCi/μl [γ-32P]ATP; BSA negative control
Description: as §1, §2
0.3 mg/ml of AAKIQASFRGHMARKK (SEQ. ID. NO: 1) and Mep45 fusion substrate were integrated on the aldehyde treated slide glass, followed by phosphorylation using 10 unit/ml of PKC and 0.1 μCi/μl of [γ-^32P]ATP. Phosphorylation was measured by using X-ray film or X-ray fluorescence spectrometer. […]

cdc2 protein kinase, sequence (P06493 whole entry, the tested form may be a part): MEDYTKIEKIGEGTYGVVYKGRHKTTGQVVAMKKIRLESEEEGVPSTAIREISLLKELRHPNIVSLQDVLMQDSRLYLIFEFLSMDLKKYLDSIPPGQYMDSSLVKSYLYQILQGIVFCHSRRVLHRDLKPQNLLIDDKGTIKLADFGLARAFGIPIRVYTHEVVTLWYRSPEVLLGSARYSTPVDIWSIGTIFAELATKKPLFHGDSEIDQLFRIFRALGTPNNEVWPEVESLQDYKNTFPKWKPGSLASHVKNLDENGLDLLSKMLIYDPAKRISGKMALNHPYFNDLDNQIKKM
cdc2 protein kinase, sequence (P14635 whole entry partner, the tested form may be a part): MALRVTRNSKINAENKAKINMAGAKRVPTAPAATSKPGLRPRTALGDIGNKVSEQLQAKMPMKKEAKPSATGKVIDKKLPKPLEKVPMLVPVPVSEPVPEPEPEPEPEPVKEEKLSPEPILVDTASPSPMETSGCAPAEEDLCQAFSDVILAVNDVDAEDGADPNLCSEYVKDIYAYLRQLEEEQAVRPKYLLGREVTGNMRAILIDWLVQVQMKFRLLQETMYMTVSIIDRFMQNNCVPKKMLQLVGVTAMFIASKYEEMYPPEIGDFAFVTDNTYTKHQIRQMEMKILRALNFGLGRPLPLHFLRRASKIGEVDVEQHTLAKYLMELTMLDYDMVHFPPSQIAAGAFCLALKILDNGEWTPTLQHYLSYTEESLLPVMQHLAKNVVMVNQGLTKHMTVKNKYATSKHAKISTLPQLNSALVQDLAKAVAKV

| phosphorylation signal on the spot (X-ray film or X-ray fluorescence spectrometer) (cdc2 protein kinase) | phosphorylation signal on the spot (X-ray film or X-ray fluorescence spectrometer) (PKC (Protein Kinase C)) | Sequence |
| --- | --- | --- |
| clear signal was detected | – | PKTPKKAKKL (cdc2 Protein Kinase substrate) [peptide substrate for cdc2-PK (cdc2 Protein Kinase)] |
| – | clear signal was detected | AAKIQASFRGHMARKK (Protein Kinase C substrate) [peptide substrate for PKC (Protein Kinase C)] |

Source: patent US7794964B2, “Biochip for the detection of phosphorylation and the detection method using the same” (Korea Atomic Energy Research Institute, priority 2008, dated 2010)
